Assay results: patent publication US20180346912

Key:
IFN-γ (human) [1] = target: T1, IFN-γ (human) (UniProt P01579); experiment: SPR; details: biotinylated DNA on SA chip, 1x PBS + 50 mM NaCl, 0.05% NP-40, 25 C
T1 sequence: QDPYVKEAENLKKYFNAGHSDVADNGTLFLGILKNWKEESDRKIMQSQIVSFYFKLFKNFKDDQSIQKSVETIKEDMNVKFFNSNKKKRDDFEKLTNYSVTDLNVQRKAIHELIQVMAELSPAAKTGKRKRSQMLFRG

IFN-γ (human) [2] = target: T1, IFN-γ (human); experiment: competition; details: PBS, 0.005% NP-40, 37 C
[3] = tested on: T2, VEGF165 (human), P15692-4; experiment: competition; details: n = Ds unnatural base in DNA, phosphate buffer pH 7.4, 0.005% NP-40, 37 C
T2 sequence: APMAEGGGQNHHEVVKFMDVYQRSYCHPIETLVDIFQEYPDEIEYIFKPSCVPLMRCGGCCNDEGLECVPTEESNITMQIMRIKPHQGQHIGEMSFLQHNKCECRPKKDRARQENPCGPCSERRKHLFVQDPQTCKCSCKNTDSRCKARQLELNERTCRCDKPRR

[4] = n = Ds unnatural base in DNA, EMSA competition vs 32P-Aptamer 49 (=1.00)
[5] = EMSA competition vs 32P-Aptamer 47 (=1.00)

Row | Sequence | binding signal (IFN-γ (human) [2]; [4]) | binding signal [3, 5] | also measured
1 | CCCGCCCGGGTCCGCGAAGCGGTAGGTNTGGGCTAGGCNGCTGGCGGGCGCGAAGCG [Aptamer 57GCmh (IFN-γ)] | 1.53 | – | Kd (IFN-γ (human) [1]; n = Ds unnatural base in DNA): 0.033 nM
2 | CCCGCCCGGGTCGCCTANTGGCGTAGGTNTGGGCTAGGCNGCTGGCGGGCGCGAAGCG [Aptamer 58GC (IFN-γ)] | 0.24 | – | –
3 | CGGTAAACTGCGTCCGAAGGGGCNTGCAGTGANCCCGAATGGGTCCG [Aptamer 47 (VEGF)] | – | – | binding signal ([3]; reference): 1
4 | GCGGTAAACTGCGTCCGAAGGGGCNTGCAGTGANCCCGAATGGGTCCGC [Aptamer 49 (VEGF)] | – | 1.53 | –
5 | GCGGTAAACTGCGTCCGAAGGGGCNTGCAGTGANCCCGAATGGGTCCGCCGCGAAGCG [Aptamer 58mh (VEGF)] | – | 1.58 | –
6 | GCGGTAAGCCGCGTCCGAAGGGGCNTGCGGCGANCCCGAATGGGTCCGC [Aptamer 49GC (VEGF)] | – | 1.5 | –
7 | GCGGTAAGCCGCGTCCGAAGGGGCNTGCGGCGANCCCGAATGGGTCCGCCGCGAAGCG [Aptamer 58GCmh (VEGF)] | – | 1.59 | –
8 | TCCACTCGGGTCATTTANTAATGTAGGTNTGGGCTAGGCNGCTAGTGGA [Aptamer 49 (IFN-γ)] | – | – | Kd (IFN-γ (human) [1]; n = Ds, 7-(2-thienyl)-3H-imidazo[4,5-b]pyridin-3-yl unnatural base in DNA): 0.046 nM; binding signal (IFN-γ (human) [2]; n = Ds, 7-(2-thienyl)-3H-imidazo[4,5-b]pyridin-3-yl unnatural base in DNA, reference, EMSA competition): 1
9 | TCCACTCGGGTCATTTANTAATGTAGGTNTGGGCTAGGCNGCTAGTGGACGCGAAGCG [Aptamer 58 (IFN-γ)] | 1.29 | – | Kd (IFN-γ (human) [1]; n = Ds unnatural base in DNA): 0.038 nM
10 | TCCACTCGGGTCCGCGAAGCGGTAGGTNTGGGCTAGGCNGCTAGTGGACGCGAAGCG [Aptamer 57mh (IFN-γ)] | 1.4 | – | –
